Here are results for one substance from paper PMC11213948 (2024).

This assay deals with G5_(1–1508)-FLAG. The assay can be described thus: pull-down. The settings on record: HEK293 cell lysates; western blot with anti-FLAG and anti-Xpress; n = 2; read off a plot.

The substance “Xpress-His G5_(1–1508) mutant A951E [not stated] / G5_(1–1508)-FLAG [not stated] chain 1 A951E” came in with a response (relative intensity (PD/In)) of 1.3.
